Experimental data as given in patent publication US20230131727A1 (Janssen / Centocor, published 2023).

Tests used:
[1] = molecular target: T1, human PSMA (prostate-specific membrane antigen) on cells (human, UniProt Q04609 1-750); test: cell-based or functional assay
[2] = molecular target: T1, human PSMA (prostate-specific membrane …); test: cell-based or functional assay; remark: listed apart in the source

T1 sequence (Q04609 whole entry): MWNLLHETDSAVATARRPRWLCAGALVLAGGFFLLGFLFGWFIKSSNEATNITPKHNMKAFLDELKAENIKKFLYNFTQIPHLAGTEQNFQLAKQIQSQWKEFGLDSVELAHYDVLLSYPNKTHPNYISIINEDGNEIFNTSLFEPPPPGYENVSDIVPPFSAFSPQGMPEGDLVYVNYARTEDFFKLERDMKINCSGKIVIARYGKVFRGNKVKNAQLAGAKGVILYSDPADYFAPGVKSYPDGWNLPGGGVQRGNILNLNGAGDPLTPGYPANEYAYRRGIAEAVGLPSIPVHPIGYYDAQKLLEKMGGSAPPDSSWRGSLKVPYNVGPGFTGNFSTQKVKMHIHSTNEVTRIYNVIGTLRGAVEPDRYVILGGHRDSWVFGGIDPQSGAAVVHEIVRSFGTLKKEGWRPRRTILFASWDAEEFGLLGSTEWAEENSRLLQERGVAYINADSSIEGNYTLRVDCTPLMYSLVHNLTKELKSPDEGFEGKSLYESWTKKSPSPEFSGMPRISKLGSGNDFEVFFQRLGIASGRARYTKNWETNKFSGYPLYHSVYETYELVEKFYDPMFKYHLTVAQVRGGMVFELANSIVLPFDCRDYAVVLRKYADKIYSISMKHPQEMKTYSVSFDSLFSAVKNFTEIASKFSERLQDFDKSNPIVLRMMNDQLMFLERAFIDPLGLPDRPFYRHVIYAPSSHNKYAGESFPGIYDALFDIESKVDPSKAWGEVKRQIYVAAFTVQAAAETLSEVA

Row | C4-2B IC50 [1] | DX8951 IC50 (nM), 22RV1 cells [2] | MMAF IC25 (nM), 22RV1 cells [2] | Binder
1 | 0.03 nM |  |  | PSMB1183 conjugated to maleimide-PEG4-vcPAB-MMAF (ADC) (antibody, human IgG1, lambda, V domains shown, reduced cysteines carry maleimide-PEG4-vcPAB-MMAF or N-ethyl maleimide; sites not given) VH: QVQLQESGPGLVKSSETLSLTCTVSGGSISSYYWNWIRQPAGKGLEWIGRIYSSGNTDYNPSLKSRVTMSVDTSKNQFSLKLISVTAADTAVYYCARGRGANVGLFDYWGQGTLVTVSS VL: QSALTQPPSVSGAPGQRVTISCTGSNSNIGANYDVHWYQHLPGTAPKLLIYGNINRPLGVPDRFSGSRSGTSASLAITGLQAEDEADYYCQSYDFSLSGSVFGVGTKLTVLG
2 |  | 0.7 nM |  | PSMB1183 conjugated to MC-GGFG-DX8951 (ADC) (antibody, human IgG1, lambda, DAR 8, V domains shown, reduced cysteines carry MC-GGFG-DX8951; DAR 8.0) VH: QVQLQESGPGLVKSSETLSLTCTVSGGSISSYYWNWIRQPAGKGLEWIGRIYSSGNTDYNPSLKSRVTMSVDTSKNQFSLKLISVTAADTAVYYCARGRGANVGLFDYWGQGTLVTVSS VL: QSALTQPPSVSGAPGQRVTISCTGSNSNIGANYDVHWYQHLPGTAPKLLIYGNINRPLGVPDRFSGSRSGTSASLAITGLQAEDEADYYCQSYDFSLSGSVFGVGTKLTVLG
3 | 0.03 nM |  | 0.1 nM | PSMB1154 conjugated to maleimide-PEG4-vcPAB-MMAF (ADC) (antibody, human IgG1, lambda, V domains shown, reduced cysteines carry maleimide-PEG4-vcPAB-MMAF or N-ethyl maleimide; sites not given) VH: EVQLVESGGGEVQPGRSLRLTCAVSGFTLSRYGMHWVRQAPGKGLEWAALISYDGSNRYYADSVKGRFTISRDNSKNTVFLQMNSLRAEDTAVYYCARERESSGWFEGYFDYWGQGTTVTVSS VL: QLVLTQPPSVSVAPGQTARITCGGNNIGSKSVHWYQQKPGQAPVLVVYDNSDRPSGIPERFSGSNSGNTATLTISRVEVGDEADYYCQVWDSSSDHVVFGGGTKLTVLG
4 |  | 0.8 nM |  | PSMB1154 conjugated to MC-GGFG-DX8951 (ADC) (antibody, human IgG1, lambda, DAR 8, V domains shown, reduced cysteines carry MC-GGFG-DX8951; DAR 8.0) VH: EVQLVESGGGEVQPGRSLRLTCAVSGFTLSRYGMHWVRQAPGKGLEWAALISYDGSNRYYADSVKGRFTISRDNSKNTVFLQMNSLRAEDTAVYYCARERESSGWFEGYFDYWGQGTTVTVSS VL: QLVLTQPPSVSVAPGQTARITCGGNNIGSKSVHWYQQKPGQAPVLVVYDNSDRPSGIPERFSGSNSGNTATLTISRVEVGDEADYYCQVWDSSSDHVVFGGGTKLTVLG
5 | 0.04 nM |  | 0.9 nM | PSMB1156 conjugated to maleimide-PEG4-vcPAB-MMAF (ADC) (antibody, human IgG1, lambda, V domains shown, reduced cysteines carry maleimide-PEG4-vcPAB-MMAF or N-ethyl maleimide; sites not given) VH: EVQLVESGGGVVQPGRSLRLSCAASGFTFTSYGMHWVRQAPGKGLEWVAVISYDGSNKYYADSVKGRFTISRDNSKNTLYLQMNSLRAEDTAVYYCAREHYDSSGYYHGYYGMDVWGQGTTVTVSS VL: not shown
6 |  | 1.4 nM |  | PSMB1156 conjugated to MC-GGFG-DX8951 (ADC) (antibody, human IgG1, lambda, DAR 8, V domains shown, reduced cysteines carry MC-GGFG-DX8951; DAR 8.0) VH: EVQLVESGGGVVQPGRSLRLSCAASGFTFTSYGMHWVRQAPGKGLEWVAVISYDGSNKYYADSVKGRFTISRDNSKNTLYLQMNSLRAEDTAVYYCAREHYDSSGYYHGYYGMDVWGQGTTVTVSS VL: not shown
7 | 0.03 nM |  | 0.4 nM | PSMB1157 conjugated to maleimide-PEG4-vcPAB-MMAF (ADC) (antibody, human IgG1, lambda, V domains shown, reduced cysteines carry maleimide-PEG4-vcPAB-MMAF or N-ethyl maleimide; sites not given) VH: EVQLVESGGGVVQPGRSLRLSCAASVRTFSGYGMHWVRQVPGKGLEWVAVISYDGSNRYYADSVKGRFTISRDNSKNTLYLQMNSLRTEDTAVYYCARDGNWGSLDLYFDLWGRGTLVTVSS VL: QSVLTQPPSVSGAPGQRVTISCTGSSSNIGADYDVHWYQQLPGTAPKLLIYVNNNRPSGVPDRFSGSRSGTSASLAITGLQADDEADYYCQSYDNTLSGVVFGGGTKLTVLG
8 |  | 2.2 nM |  | PSMB1157 conjugated to MC-GGFG-DX8951 (ADC) (antibody, human IgG1, lambda, DAR 8, V domains shown, reduced cysteines carry MC-GGFG-DX8951; DAR 8.0) VH: EVQLVESGGGVVQPGRSLRLSCAASVRTFSGYGMHWVRQVPGKGLEWVAVISYDGSNRYYADSVKGRFTISRDNSKNTLYLQMNSLRTEDTAVYYCARDGNWGSLDLYFDLWGRGTLVTVSS VL: QSVLTQPPSVSGAPGQRVTISCTGSSSNIGADYDVHWYQQLPGTAPKLLIYVNNNRPSGVPDRFSGSRSGTSASLAITGLQADDEADYYCQSYDNTLSGVVFGGGTKLTVLG
